Reference: patent US20110158908A1, “CYCLOSPORIN A-BINDING PROTEIN” (Sapporo Medical University, priority 2007, published 2011)

Biological target: recombinant CSABP protein (CSABP-FL) (human) (UniProt Q9H6S0)
Assay: SPR, Biacore 3000; recombinant CSABP-FL immobilized on CM5 chip by amine coupling, CsA in PBS-8% DMSO as analyte

For cyclosporin A (CsA) (peptide), the Kd was 120 nM.
